Source: US20040175378A1, “Selected antibody compositions and methods for binding to aminophospholipids” (Board of Regents, The University of Texas System, priority 2002, published 2004)

Columns and labels:
[1] = system: orthotopic MDA-MB-231 breast cancer; experiment: 3G4 tumor treatment and histology; assay type: in vivo, mice
Procedure: FIG. 17A and FIG. 17B. […] At the conclusion of treatment, animals were perfused and tumors were snap-frozen, cut and stained with an antibody to murine CD31 (rat, anti-mouse CD31), a pan-endothelial marker of murine vasculature (FIG. 17A), or embedded in paraffin and strained with H&E (FIG. 17B).
In the orthotopic model, 1×10^7 cells in 0.1 ml DMEM are typically injected into MFP of anesthetized mice. Mice are anesthetized with 0.075 ml of mouse cocktail injected IP. The mouse cocktail is 5 ml Ketamine (100 mg/ml); 2.5 ml Xylazine (20 mg/ml); 1 ml Acepromazine (10 mg/ml); 11 ml sterile water. Dosage is 0.1 ml per 20-30 grams body weight via the IP route for a duration of 30 minutes.
Once the mouse is anesthetized, as measured by no response to toe/foot pinch, the mouse is laid on its left side and wiped with 70% ethanol just behind the head and around the right forearm/back area. […] 0.1 ml of cells are injected into the fat pad using a 1 ml syringe and a 27-gauge needle, producing a bleb in the fat pad. The incision is closed using a 9 mm sterile wound clip. The mouse is returned to its cage and observed until it has wakened from anesthesia and is mobile. Post-operative health status is determined, and if any signs of distress are observed, the animal is given acetaminophen (0.24 mg/ml)+codeine (0.024 mg/ml) in the drinking water. The wound clip is removed after 1 week. This method is used so that the cells are accurately placed into the selected site and not into the subcutaneous region. Tumors will be approximately 200 μl in volume (L×W×W) in 14-15 days and the take rate is essentially 100%.
Treatment was repeated 3 times a week. Animals were monitored twice a week for tumor measurements.

[2] = monkey, in vivo
[3] = system: RSV long strain; experiment: RSV-infected A-549 cells, plaque assay; details: MOI 1, 100 μg antibody per well
[4] = system: human CMV AD169; experiment: CMV-GFP infected HHF-R2 cells, fluorescent microscopy; details: MOI 0.01

B1: 3G4: mouse IgG3 kappa monoclonal antibody binding PS and other anionic phospholipids; hybridoma ATCC PTA 4545 (antibody, V domains shown)
VH: EVQLQQSGPELEKPGASVKLSCKASGYSFTGYNMNWVKQSHGKSLEWIGHIDPYYGDTSYNQKFRGKATLTVDKSSSTAYMQLKSLTSEDSAVYYCVKGGYYGHWYFDVWGAGTTVTVSSATTTAPSVYPLVP
VL: DIQMTQSPSSLSASLGERVSLTCRASQDIGSSLNWLQQGPDGTIKRLIYATSSLDSGVPKRFSGSRSGSDYSLTISSLESEDFVDYYCLQYVSSPPTFGAGTKLELKRADAAPTVFIFGRIP
- mice with long-term complete remissions ([1]; MBA-MD-231 tumors): 30%
- reduction in microvascular density, treated vs. untreated mice ([1]; histological examination): 70%
- growth retardation ([1]; orthotopic MDA-MB-231): 50%
- side effects [2]: no side effects have been observed
- decrease in viral titer [3]: 2 log10
- entry of the virus into the cells ([4]; day 3, 50 and 100 μg/ml): does not appear to significantly inhibit the entry of the virus
- spread of CMV from the original infected cell ([4]; day 9, 100 and 50 μg/ml): restricted to the original singly-infected cell
